Laboratory results from patent publication US20220017615A1 (SHANGHAI PHARMAEXPLORER, published 2022).
Numbering of substitutions follows the chain as printed. Like-named read-outs stand apart in the source and are kept apart here.

T1: mouse CD47, on CHOK1/mCD47 cells (mouse, UniProt Q61735 19-303)
T1 construct: whole, on cells; also called murine CD47
T1 sequence (looked up): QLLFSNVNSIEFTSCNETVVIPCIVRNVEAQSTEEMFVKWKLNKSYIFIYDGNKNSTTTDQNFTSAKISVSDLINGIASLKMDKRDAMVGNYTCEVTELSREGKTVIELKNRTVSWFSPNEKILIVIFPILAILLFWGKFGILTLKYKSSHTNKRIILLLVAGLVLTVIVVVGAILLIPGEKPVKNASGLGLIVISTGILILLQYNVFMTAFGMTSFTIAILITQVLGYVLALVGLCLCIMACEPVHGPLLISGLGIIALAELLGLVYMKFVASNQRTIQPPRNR

B1: 29A03 WT (antibody, V domains shown)
VH: EVQLQQSGAELVKPGASVKMSCKASGYTFTNYWITWVKQRPGQGLEWIGDIYPVSGGTDYNEKFKTRATLTVDTSSSTAYMHLSSLTSEDSAVYYCARKGRGGVDYWGQGTTLTVSS
VL: DILMTQTPLSLPVSLGDQASISCRSSQSIVHSNGNTYLEWYLQKPGQSPKLLIYKVSNRFSGVPDRFSGSGSGTDFTLKISRVEAEDLGVYFCSQSTHVPYTFGGGTKLEIK
notes: WT = NG site of CDR-L1 not mutated
B2: c29A03NA (antibody, V domains shown)
VH: B1 VH
VL: B1 VL with G34A
notes: Phage-derived clone 29A03 with the NG site of CDRL1 mutated to NA
B3: 29A03 QG (antibody, V domains shown)
VH: B1 VH
VL: B1 VL with N33Q
B4: c95E2D10 (antibody, V domains shown)
VH: QIQLQQSGPELVKPGASMKISCKASGYPFTDYYIHWVKQKPGQGLEWIGWIYPGSGNNKYNEKFKGKATLTVDTSPSTVYMQLSSLTSEDTAVYFCARRAGNYFDYWGQGTTLTVSS
VL: NIVMTQSPKSMSRSVGERVTLSCRASENVRTYVFWYQQKPGLSPKLLIYGASNRYIGVPDRFTGSGSATDFTLTISSVQAEDLADYHCGQSYSYPLTFGAGTKLELK

Experiments:
[1] = target: T2, human CD47, full length, on transfected cells (human, UniProt Q08722 19-323); test: flow cytometry (FACS) on CHOK1-hCD47 cells, mean fluorescence intensity
T2 construct: whole, on cells; also called CHOK1-hCD47
Procedure: (§1) The CHOK1-hCD47 stable cell lines and CHOK1-cCD47 stable cell lines were expanded to 90% confluence in a T-75 cell culture flask, the medium was exhausted, washed twice with HBSS buffer (Hanks balanced salt solution) (purchased from Invitrogen), and then treated and collected with enzyme-free cell dissociation solution (Versene solution: purchased from Life technology). The cells were washed twice with HBSS buffer. After counted, the cells were diluted with HBSS to 2×10⁶ cells per ml, added with 1% goat serum blocking solution, wherein the percentage was the mass percantage, incubated on ice for 30 minutes, and then washed twice with HBSS by centrifugation. […] The plate was washed 3 times with FACS buffer by centrifugation, added with 100 μl fixative solution [4% (v/v) Paraformaldehyde] per well to suspend the cells. 10 minutes later, it was washed twice with FACS buffer by centrifugation. The cells were suspended with 100 microliters of FACS buffer, FACS (FACS Calibur, purchased from BD) was used for detection and the results were analyzed.

[2] = target: T1, mouse CD47, on CHOK1/mCD47 cells; test: flow cytometry (FACS) on CHOK1-mCD47 cells, mean fluorescence intensity
[3] = target: T3, cynomolgus CD47, on CHOK1-cCD47 stable cell line (cynomolgus); test: flow cytometry (FACS) on CHOK1-cynoCD47 cells, mean fluorescence intensity
T3 construct: whole, on cells; check before use; also called CHOK1/cynoCD47; monkey-derived CD47
Procedure: as §1

[4] = target: T4, His-tagged CD47 recombinant protein, CD47-His (human, UniProt Q08722 19-141, limits assumed); test: BLI (Octet Red 96), antibody on AHC sensor, CD47-His 100 nM
T4 construct: it is not restated for CD47-His; also called human CD47-His protein; antigen CD47-His; not shown: His tag

[5] = target: T5, biotin-labeled CD47 extracellular domain protein (CD47-ECD) (UniProt Q08722 19-139, limits assumed, biotin-labeled (sites not given)); test: blocking ELISA: SIRPα-hFc coated, biotin-labeled CD47-ECD added with the antibody, OD450; blocked ligand SIRPα-hFc
T5 construct: extracellular domain; also called CD47 protein

[6] = target: T5, biotin-labeled CD47 extracellular …; test: as above; remark: listed apart in the source

Binder | EC50 (read off the curve) [1] [nM] | EC50 (read off the curve) [2] [nM] | EC50 (read off the curve) [3] [nM] | Kd [4] [nM] | koff [4] [s⁻¹] | kon [4] [M⁻¹ s⁻¹] | IC50 (read off the curve) [5] [nM] | IC50 (read off the curve) [6] [nM]
B1 | ~5 | ~10 | ~3 |  |  |  |  | 
B2 | ~5 | ~10 | ~3 | 4.69 | 0.00207 | 442000 | ~1 | 
B3 | ~5 | ~10 | ~3 |  |  |  | ~3 | 
B4 |  |  |  | 10.2 | 0.00358 | 350000 |  | ~1
